In US20040213794:

Tested on: myelin basic protein (MBP)

| Substance | in gel kinase assay (MBP as substrate) |
| --- | --- |
| Mst1, cleaved 34 kD form (amino-terminal half containing the N-terminal kinase domain), in neonatal rat cardiac myocytes | activation of the full length (61 kD) and cleaved (34 kD) forms of Mst1 after 6 hr Doxo stimulation of cardiac myocytes |
| Mst1 (mammalian sterile 20-like kinase-1), full length 61 kD form, endogenous in neonatal rat cardiac myocytes | activation of the full length (61 kD) and cleaved (34 kD) forms of Mst1 after 6 hr Doxo stimulation of cardiac myocytes |
